This series in a line: label from the status in PepcDB records.
As to “MSLKIAAFGEVMLRFTPPEYLMLEQTEQLRMNFVGTGVNLLANLAHFQLETALITKLPANRLGEAGKAALRKLGISDQWVGEKGDHIGSFFAEMGYGIRPTQVTYQNRHQSAFGISEAKDYDFEAFLAEVDMVHICGISLSLTEKTRDAALILAQKAHAYQKKVCFDFNYRPSLNTANSALFMRQQYERILPYCDIVFGSRRDLVELLGFIPREDLEGEAQETELIQRFMSQYNLEWFAGTTRSHSQNQNYLSGYLYTQNEYQQSEKRPLLNLDRIGAGDAYAAGILYGYSQNWSLEKAVTFATVNGVLAHTIQGDIPLTTVKQVNHVLEHPNIDLIREGHHHHHH”, the protein production entry is “not failed”. The same measure for “MKTFIWNSNYETGVAKVDDQHQCLVEIINEYSHLLANNTTTETDIELTLNKLIDYTKFHFKDEEQLMYSVGLDTRHITHHEKLHRDILDEISTLLSDQVTDKLSIARYILDLIIHWLVYHILGTDMNMAKLEHHHHHH”: “failed”; for “MPETMHDNALTQSCTLVTSPELGTMHAMPTYIATKNGEPTAIAIESIAPDGYNGEIKVITGIDNQGKILGTRVLSHQETPGLGDKIDLRVTSWILGFTGKQVTEDNWNSWKVRKDGGDFDQFTGATITPRAVIKAVRNTVNYVNQSRDEILSQPLEHHHHHH”: “not failed”; for “MNDFKNQWLRKRTFAIPASRLTGRLTTLKSDVPAADSLFWKLWNGSLDTAVQVLQTDYFKGIAAGTLDPNAYGSLMVQDGYYCFRGRDDYATAATCAQDETLREFFKAKAKSYDEYNETYHQTWHLREASGLIPGTDIKDYADYEAYVAGSLASPYMCVVMLPCEYLWPWIANFLDGYTPTNSLYRFWIEWNGGTPNGAYQMGNMLEQYRDKIDEDKAVEIFNTAMNYELKVFTSSTILTTIENGK”: “not failed”. The same measure for “MVQLDQRVRFKSATSIISIEMWERFSFYGMQALLVYYLYFDVAAGGLGLDQTQATGLVGVYGALLYLCCWAGGWVSDRVLGAEKTLLGGAISVTIGHLVLAGLGGKIGLAIGLGCIAIGSGFVKTAAITVLGSRHGEQEGDAKADPAFQLFYLGINVGALLGPLLTGWLSSRYSFEMGFGAAAVLMIGGLGIYAALRKPMLQSFPLEVKKALLRAQNPAEKHVISTAFAAVAVLCGVLLYLLLTETVSADQLAGALLLVTIGAALWLIIQPLRHPQVSSEEKRKVLAFIPIFVCSTAFWAVQAQTYGVLAVYSQERVDRMVGDFEIPAAWSQSLNPFFILALSIPISLWFMRGSRAPRVKIGISIGVIIAGSGLLVLIPFVGMPLAPVWVLPLSVFLISLGELFIGPGGMAATAHHAPRIFATRFSALYFLTLAIGMSIAGNVSKFYDPTNHTSELRYFAVFGISIIVIGVGSLMVAKKVG”: “failed”. With “MQWIYLCFAILFEVAGTTAMKLSDGLTKLVPSILIFVFYVVSFAFLSFALKGMEMSVAYAVWSGMGIVTITTIGFIYFGESINIIKILAILFILVGVVILNFNSTAHEAKKKEMVEERIH”, the protein production entry is listed as “failed”. The entry for “MSELTAFGHSLSSGYEVVVIKPQSLSDTTLIVQALRADKAVILNLEHLDVAEAQRISDFAAGSTYAINGHQSRLGDGVFLFTPNVINIQERTAVPTPAGLV” is “failed”. The entry for “MNRTKKRALTVRIVKTAISVALAAVIVVAMVLVNPQLSTNKLISSLMGYNHQSVDNGNASAGDADTNYYTADYTKENIRKAEDKLYDQIASEGTVLLKNDDNELPAQKGTTFSFFSANSVDGSSLTQGYLGTPETVTLKSAFTAAGFKVNETLWNYYESGAGKDYGLATGSVNYGDGEDFRINEAPLAALRKESGLLDSVRGTTPVYVLNRVVGEGRDMPRSMYNHADKQEDKEKSYIELDSTETEIIKYLNDNYKDVILLVKSSAAMELGWVADYPNIKAVVYSQNVTNALAKVFSGEVNPSGKTVDTFAADALASPAAQNFGSYQYYDGNGNATKYNYVDYAEGIYVGYKYYETRYEDKVLGQGNAGDYDYATEVVYPFGYGLSYTDFKWSDFSVATDGDDFVATVTVKNTGDVAGKDVVELYAQTPYTDYDKRNAVEKAAVNLVGYGKTAELEPGASETVKITFGKDQLKSYDYKGAKTYILDAGQYRFTAASDANQAINNILADKGKGMADGMTAEGDKAMVSSWTPENTDVDTTTFATDDATGKAIANLFDAASDPEVTYLTRSDWTGTFPKHYGESSGEINTWGNEINCKDSDGNNASCTWKKTASDELIKQLDGNDSGSTVDKSTITDTPTFGKSNGLKVSDMRGLDYDDEQWDKLLDELTEDDYNQLVYFSGYGVDYIKSVEKPFQTDADAATGWFYGGTGKAFPSIMMLTQTWNASLAEDLGVMMGNEALLGGANGWYAPAMNIHRTPFSGRNGEYYSEDGFMSGSMASLEVKGAATKGVYSYIKHFALNDQENHRGDRPGNFSVATWSNEQAIRETYLKPFDMCMHLGDMDMKTVVKKSDGTYENKTVTTPIAKGVMTSFNRLGATWTGGNYALIQQLLRDEWGFNGLIITDNANTSKFMSPYQMLEAGADIKLLNVSEDPTGEQLDFNDAATYHYARQAMHHLLYTVANSNCMNGALPGAGFTFYNQMKVMQIAFNAICGVILALLAFFSVWRWLPGTIKRVAARKETRAAKKAARKAAKA” is “failed”. The same measure for “MLFEGLPCLAVWCKNRLSAVLPVGGLNVSENLLEIETHPFDPVLPPKAAVMMMGTFPPKEDKRAMQFHYPNFQNDMWRVYGLVFFNDAAHFQRLSEKAFDAEKIKAFLHERGIASCPTVLKAVRQHGNASDKFLKVVETVDLAAVLAKIPECRHICTTGGKATEILLDIQGGGIKMPKTGETVPFPFAGRDLTLTRLPSTSRAYPLSLAKKAAAYRAFFEMAGLCEKQLLEHHHHHH”: “failed”; for “MTNHQHPQTTTQWIDLIANSELPAITSTARMLDKFSNDDKSSLPKLSEAILHDQGLSSCLLKVANNIQHISINKVTTVSRASVVLGIQSVKNICLTAKLVSSLLASKSLDINVYEQLTQLMANSFYAGMLAKMMVPNYSEEIQEEVYLAAMLYRIGESAFWSAGGDVAKKLANYEAKSPQDFNQYCRKEMGTNFSELSKGLAGTWNLSDLLIKALDQPTTRTDEVKVIYFADKLSAIIAKPEGCEEDYHKLLKEIAYIVGISVRQLTVRIEHTREQAEKLLSSYGAEILTERINSLPTAEDFKSLGGDFDTREVVSKDKALLNGFMKLTKLIQNSKDFNEYLQLTLESLALTFAFDRSSFLMLVDDRARVKSRLVVNKNAQDDASKINIDIKHSDNVIARVISTDTAALINDHQEIRWRDLVTEEISEVIVEGAIAFVPVKIGGKAIGVICLQLLSPDQKIETQDFQQICAFIDHLNMCLTMIKYS”: “failed”. Consider “MELGSVATFSLYPDLYARFRPSYPEELYDWLLPLCPGRQRAWDCATGSGQTAVRLGESFSRVDATDISSSQLSAAEPHTQVYYRECPAEVTPFDDDCFDLICVSQALHWFHLPSFWPEMQRVLKPGGIFAAWGYHHCVVSPEVDRACSVLWSIIEPFWSSRCQLLWDDFRGSGCPLPLLKAPSFTISSDWALDHFLGFLNTTSASKLCKQALGESILDDACQRITRAWGPRNQVRRVDLPLHLMVARKDDAGGYAG”, for which the protein production result is listed as “failed”. The same measure for “MPAAHPSAISFARQTKAIAMAAKIVPAPDYEDRVRASFARQQAMATIGAELTLVTPGIIEIEMPYSAALTQQHGFLHAGVISTALDSACGYAAFSLMPENSGVLTIEFKVNLLAPGRGERFLFRGSVTKPGRTIIVADGQAYAFAADGEAKLIATMTGTMMTVVGRDGIAG”: “failed”. As for “MKQRRKGQENSDTEEMISRIYPYITRVFDIYEIQKSGEILYFFGTPKTDAENVMGELWAPLEQRGLGGTLKYELGEHVLIVTPVKKAKEKHWVNLALFIATVFTTMICGAWLFGVDLWSEPLQIFQGLPFTLAILAVLGSHEMAHYAMARHHGMKTSLPYFIPFPTFIGTMGAVIRYRGPIPDRKALFDVGIAGPLVGLLVSIVVTIIGLNLDVPAVKPLPDSLMFELGLPPLFVMLQKLVGVTGSNLHPVAFAGWVGMFVTLLNLLPAGQLDGGHVLRAMLGKKADWVSSMMPRILLMIGIYVVYGLKGDGFIWIFWALFLWAFAAAGHPSPLHDKMKLDRKRILIGILTFILGLLCFTLIPFKPIT”, the protein production entry was “failed”.
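Also: failed if final PepcDB status was selected cloned or expressed and not failed if soluble or beyond.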
